Experimental data published in patent publication US20250057840.

What was measured:
[1] = target: GFP-MAGI1 Y373F (human MAGI1c-Y373F-GFP) (UniProt Q96QZ7)
[2] = target: GFP-tagged MAGI1 WT (human MAGI1c, pCMV6-AC-GFP-MAGI1c WT, Origene #RG212712) (UniProt Q96QZ7)
[3] = target: myc-tagged MAGI1 deletion of GUK domain (murine, pCDNA3.1) (UniProt Q6RHR9)
[4] = target: myc-tagged MAGI1 deletion of GUK-WW domains (murine, pCDNA3.1) (UniProt Q6RHR9)
[5] = target: myc-tagged MAGI1 deletion of WW domain (murine, pCDNA3.1) (UniProt Q6RHR9)
myc-tagged MAGI1 deletion of WW domain (murine, pCDNA3.1), sequence (Q6RHR9 other isoform, or with tags, fused parts or gaps): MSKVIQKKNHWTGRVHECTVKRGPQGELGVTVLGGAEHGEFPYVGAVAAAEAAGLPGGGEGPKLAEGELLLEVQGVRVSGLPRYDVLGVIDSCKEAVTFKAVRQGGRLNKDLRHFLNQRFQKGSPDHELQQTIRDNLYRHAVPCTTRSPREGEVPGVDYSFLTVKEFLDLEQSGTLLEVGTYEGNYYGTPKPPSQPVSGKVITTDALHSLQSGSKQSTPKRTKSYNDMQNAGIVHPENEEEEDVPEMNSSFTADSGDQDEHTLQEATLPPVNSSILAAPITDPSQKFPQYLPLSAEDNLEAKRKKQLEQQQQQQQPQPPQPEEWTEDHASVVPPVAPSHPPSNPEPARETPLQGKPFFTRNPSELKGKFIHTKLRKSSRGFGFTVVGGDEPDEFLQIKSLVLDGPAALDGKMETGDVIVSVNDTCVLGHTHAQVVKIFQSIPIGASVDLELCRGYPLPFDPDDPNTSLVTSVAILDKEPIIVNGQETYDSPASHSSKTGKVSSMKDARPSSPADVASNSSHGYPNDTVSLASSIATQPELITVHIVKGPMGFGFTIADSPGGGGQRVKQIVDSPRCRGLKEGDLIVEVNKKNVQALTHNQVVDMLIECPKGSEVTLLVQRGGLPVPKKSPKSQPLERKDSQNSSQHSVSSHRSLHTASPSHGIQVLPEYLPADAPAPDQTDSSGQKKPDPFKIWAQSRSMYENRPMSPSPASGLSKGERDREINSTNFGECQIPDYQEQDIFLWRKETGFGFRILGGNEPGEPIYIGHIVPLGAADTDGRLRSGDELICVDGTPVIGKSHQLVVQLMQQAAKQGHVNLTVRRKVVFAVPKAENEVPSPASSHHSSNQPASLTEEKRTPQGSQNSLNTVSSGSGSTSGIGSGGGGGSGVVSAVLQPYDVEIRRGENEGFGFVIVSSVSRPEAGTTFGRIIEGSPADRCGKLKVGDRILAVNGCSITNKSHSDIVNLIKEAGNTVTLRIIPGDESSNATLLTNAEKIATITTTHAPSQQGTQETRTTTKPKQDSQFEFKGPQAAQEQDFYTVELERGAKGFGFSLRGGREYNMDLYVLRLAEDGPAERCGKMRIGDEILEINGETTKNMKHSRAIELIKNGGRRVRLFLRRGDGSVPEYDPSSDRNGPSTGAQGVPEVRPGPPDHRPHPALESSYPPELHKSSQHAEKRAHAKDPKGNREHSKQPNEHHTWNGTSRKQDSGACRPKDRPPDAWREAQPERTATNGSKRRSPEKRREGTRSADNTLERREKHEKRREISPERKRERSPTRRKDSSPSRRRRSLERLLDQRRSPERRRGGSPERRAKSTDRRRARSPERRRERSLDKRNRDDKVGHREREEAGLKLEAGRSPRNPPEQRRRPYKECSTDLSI

GFP-MAGI1 Y373F (human MAGI1c-Y373F-GFP), sequence (Q96QZ7 other isoform, or with tags, fused parts or gaps Y373F Y373F): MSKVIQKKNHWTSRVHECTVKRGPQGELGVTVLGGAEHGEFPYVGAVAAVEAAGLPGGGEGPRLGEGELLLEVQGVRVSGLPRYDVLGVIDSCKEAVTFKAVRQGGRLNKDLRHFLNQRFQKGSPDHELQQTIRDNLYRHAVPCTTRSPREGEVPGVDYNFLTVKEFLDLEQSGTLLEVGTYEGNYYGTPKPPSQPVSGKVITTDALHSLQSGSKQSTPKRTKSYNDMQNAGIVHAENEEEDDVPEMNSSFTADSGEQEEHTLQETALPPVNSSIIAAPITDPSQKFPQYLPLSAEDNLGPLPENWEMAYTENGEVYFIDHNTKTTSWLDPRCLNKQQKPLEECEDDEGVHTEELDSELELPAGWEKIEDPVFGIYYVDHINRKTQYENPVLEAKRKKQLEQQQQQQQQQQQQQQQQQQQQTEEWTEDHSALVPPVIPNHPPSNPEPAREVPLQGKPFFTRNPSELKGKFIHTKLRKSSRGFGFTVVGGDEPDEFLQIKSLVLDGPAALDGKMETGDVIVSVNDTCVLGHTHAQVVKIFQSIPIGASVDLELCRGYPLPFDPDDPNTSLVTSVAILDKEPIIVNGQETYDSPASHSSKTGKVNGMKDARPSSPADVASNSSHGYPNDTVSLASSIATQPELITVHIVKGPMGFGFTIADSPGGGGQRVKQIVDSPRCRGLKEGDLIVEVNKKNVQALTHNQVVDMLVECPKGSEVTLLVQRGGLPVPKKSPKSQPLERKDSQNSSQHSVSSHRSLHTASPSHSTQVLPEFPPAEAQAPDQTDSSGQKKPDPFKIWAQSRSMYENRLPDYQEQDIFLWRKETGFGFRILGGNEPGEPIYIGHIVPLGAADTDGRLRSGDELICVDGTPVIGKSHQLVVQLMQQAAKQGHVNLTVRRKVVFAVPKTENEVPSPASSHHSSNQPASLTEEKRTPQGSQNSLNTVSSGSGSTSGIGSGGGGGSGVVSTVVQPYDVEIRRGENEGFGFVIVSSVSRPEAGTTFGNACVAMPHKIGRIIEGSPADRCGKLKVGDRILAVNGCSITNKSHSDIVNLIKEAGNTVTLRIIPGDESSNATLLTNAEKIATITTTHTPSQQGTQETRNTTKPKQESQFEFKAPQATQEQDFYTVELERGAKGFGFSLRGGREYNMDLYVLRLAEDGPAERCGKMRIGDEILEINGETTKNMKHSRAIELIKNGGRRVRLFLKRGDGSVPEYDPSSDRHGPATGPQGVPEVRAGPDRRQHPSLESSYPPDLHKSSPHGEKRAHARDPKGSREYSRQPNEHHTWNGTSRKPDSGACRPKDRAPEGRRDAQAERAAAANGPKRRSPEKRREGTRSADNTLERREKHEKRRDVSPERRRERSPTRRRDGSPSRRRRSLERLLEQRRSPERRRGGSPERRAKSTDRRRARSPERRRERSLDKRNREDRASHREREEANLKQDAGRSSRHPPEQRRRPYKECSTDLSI
GFP-tagged MAGI1 WT (human MAGI1c, pCMV6-AC-GFP-MAGI1c WT, Origene #RG212712), sequence (Q96QZ7 other isoform, or with tags, fused parts or gaps): as the sequence (Q96QZ7 other isoform, or with tags, fused parts or gaps Y373F Y373F) above, with F373Y counted along it
myc-tagged MAGI1 deletion of GUK-WW domains (murine, pCDNA3.1), sequence (Q6RHR9 other isoform, or with tags, fused parts or gaps): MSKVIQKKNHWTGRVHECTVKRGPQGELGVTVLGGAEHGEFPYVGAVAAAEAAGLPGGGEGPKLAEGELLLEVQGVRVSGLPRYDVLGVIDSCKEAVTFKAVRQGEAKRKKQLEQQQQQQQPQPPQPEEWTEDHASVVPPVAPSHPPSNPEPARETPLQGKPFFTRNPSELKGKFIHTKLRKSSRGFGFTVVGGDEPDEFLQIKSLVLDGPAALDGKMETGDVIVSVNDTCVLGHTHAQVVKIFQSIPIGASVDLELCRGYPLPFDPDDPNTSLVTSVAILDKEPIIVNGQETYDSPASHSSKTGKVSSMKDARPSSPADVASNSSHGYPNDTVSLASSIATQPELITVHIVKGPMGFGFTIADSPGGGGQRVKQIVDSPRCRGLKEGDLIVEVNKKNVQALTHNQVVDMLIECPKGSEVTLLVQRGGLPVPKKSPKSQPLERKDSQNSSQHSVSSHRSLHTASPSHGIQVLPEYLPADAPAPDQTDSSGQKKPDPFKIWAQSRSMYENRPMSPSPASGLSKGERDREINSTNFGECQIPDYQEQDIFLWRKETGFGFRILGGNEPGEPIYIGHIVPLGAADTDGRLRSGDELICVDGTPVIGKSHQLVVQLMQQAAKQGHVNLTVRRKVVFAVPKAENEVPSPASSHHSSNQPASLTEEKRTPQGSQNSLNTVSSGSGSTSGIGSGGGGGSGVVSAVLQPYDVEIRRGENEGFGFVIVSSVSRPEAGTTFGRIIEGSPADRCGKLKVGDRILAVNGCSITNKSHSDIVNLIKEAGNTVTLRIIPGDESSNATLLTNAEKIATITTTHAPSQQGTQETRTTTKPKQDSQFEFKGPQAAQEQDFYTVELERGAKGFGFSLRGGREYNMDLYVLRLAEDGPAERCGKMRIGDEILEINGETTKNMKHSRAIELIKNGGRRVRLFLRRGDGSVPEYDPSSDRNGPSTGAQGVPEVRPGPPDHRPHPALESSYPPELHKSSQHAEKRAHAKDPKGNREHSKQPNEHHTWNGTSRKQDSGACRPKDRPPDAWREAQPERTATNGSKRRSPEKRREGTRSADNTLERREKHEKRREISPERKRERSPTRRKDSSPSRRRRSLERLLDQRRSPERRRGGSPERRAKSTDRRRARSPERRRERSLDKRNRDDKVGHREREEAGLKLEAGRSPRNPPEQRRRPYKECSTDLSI

Substance: proto-oncogene tyrosine-protein kinase Src (SRC), wild type, expressed from pCMV SRC WT in 293T cells
- phosphorylation of MAGI1 at Y373 (western blot with rabbit antisera against pMAGI1 Y373, 293T co-expression) [1]: co-expression of SRC and WT MAGI1 but not Y373F mutant resulted in strong phosphorylation of MAGI1 at Y373
- phosphorylation of MAGI1 at Y373 (western blot with rabbit antisera against pMAGI1 Y373, 293T co-expression) [2]: co-expression of SRC and WT MAGI1 but not Y373F mutant resulted in strong phosphorylation of MAGI1 at Y373
- Y373 phosphorylation (western blot with pMAGI1 Y373 antisera, 293T co-expression) [3]: Y373 phosphorylation was abolished when WW domain was absent but not GUK
- Y373 phosphorylation (western blot with pMAGI1 Y373 antisera, 293T co-expression) [4]: Y373 phosphorylation was abolished when WW domain was absent but not GUK
- Y373 phosphorylation (western blot with pMAGI1 Y373 antisera, 293T co-expression) [5]: Y373 phosphorylation was abolished when WW domain was absent but not GUK
